Measured values: IntAct's records for PubMed 18775314

B1: Arf-GAP domain and FG repeat-containing protein 1 (Homo sapiens), P52594 (parent)
chain: MAASAKRKQEEKHLKMLRDMTGLPHNRKCFDCDQRGPTYVNMTVGSFVCTSCSGSLRGLNPPHRVKSISMTTFTQQEIEFLQKHGNEVCKQIWLGLFDDRSSAIPDFRDPQKVKEFLQEKYEKKRWYVPPEQAKVVASVHASISGSSASSTSSTPEVKPLKSLLGDSAPTLHLNKGTPSQSPVVGRSQGQQQEKKQFDLLSDLGSDIFAAPAPQSTATANFANFAHFNSHAAQNSANADFANFDAFGQSSGSSNFGGFPTASHSPFQPQTTGGSAASVNANFAHFDNFPKSSSADFGTFNTSQSHQTASAVSKVSTNKAGLQTADKYAALANLDNIFSAGQGGDQGSGFGTTGKAPVGSVVSVPSQSSASSDKYAALAELDSVFSSAATSSNAYTSTSNASSNVFGTVPVVASAQTQPASSSVPAPFGATPSTNPFVAAAGPSVASSTNPFQTNARGATAATFGTASMSMPTGFGTPAPYSLPTSFSGSFQQPAFPAQAAFPQQTAFSQQPNGAGFAAFGQTKPVVTPFGQVAAAGVSSNPFMTGAPTGQFPTGSSSTNPFL
B2: Vesicle-associated membrane protein 7 (Homo sapiens), P51809 (parent)
chain: MAILFAVVARGTTILAKHAWCGGNFLEVTEQILAKIPSENNKLTYSHGNYLFHYICQDRIVYLCITDDDFERSRAFNFLNEIKKRFQTTYGSRAQTALPYAMNSEFSSVLAAQLKHHSENKGLDKVMETQAQVDELKGIMVRNIDLVAQRGERLELLIDKTENLVDSSVTFKTTSRNLARAMCMKNLKLTIIIIIVSIVFIYIIVSPLCGGFTWPSCVKK
partner: B1 chain

Variants of: B1
Conditions: with vamp7_human VAMP7, P51809

Row | effect of a mutation on the interaction | Variant
1 | decreasing interaction | MAASAKRKQEEKHLKMLRDMTGLPHNRKCFDCDQRGPTYVNMTVGSFVCTSCSGSLRGLNPPHRVKSISMTTFTQQEIEFLQKHGNEVCKQIWLGLFDDRSSAIPDFRDPQKVKEFLQEKYEKKRWYVPPEQAKVVASVHASISGSSASSTSSTPEVKPSKSSLGDSAPTLHLNKGTPSQSPVVGRSQGQQQEKKQFDLLSDLGSDIFAAPAPQSTATANFANFAHFNSHAAQNSANADFANFDAFGQSSGSSNFGGFPTASHSPFQPQTTGGSAASVNANFAHFDNFPKSSSADFGTFNTSQSHQTASAVSKVSTNKAGLQTADKYAALANLDNIFSAGQGGDQGSGFGTTGKAPVGSVVSVPSQSSASSDKYAALAELDSVFSSAATSSNAYTSTSNASSNVFGTVPVVASAQTQPASSSVPAPFGATPSTNPFVAAAGPSVASSTNPFQTNARGATAATFGTASMSMPTGFGTPAPYSLPTSFSGSFQQPAFPAQAAFPQQTAFSQQPNGAGFAAFGQTKPVVTPFGQVAAAGVSSNPFMTGAPTGQFPTGSSSTNPFL [L160S;L163S]
2 | decreasing interaction | MAASAKRKQEEKHLKMLRDMTGLPHNRKCFDCDQRGPTYVNMTVGSFVCTSCSGSLRGLNPPHRVKSISMTTFTQQEIEFLQKHGNEVCKQIWLGLFDDRSSAIPDFRDPQKVKEFLQEKYEKKRWYVPPEQAKVVASVHASISGSSASSTSSTPEVKPLKSLLGDSAPTSHSNKGTPSQSPVVGRSQGQQQEKKQFDLLSDLGSDIFAAPAPQSTATANFANFAHFNSHAAQNSANADFANFDAFGQSSGSSNFGGFPTASHSPFQPQTTGGSAASVNANFAHFDNFPKSSSADFGTFNTSQSHQTASAVSKVSTNKAGLQTADKYAALANLDNIFSAGQGGDQGSGFGTTGKAPVGSVVSVPSQSSASSDKYAALAELDSVFSSAATSSNAYTSTSNASSNVFGTVPVVASAQTQPASSSVPAPFGATPSTNPFVAAAGPSVASSTNPFQTNARGATAATFGTASMSMPTGFGTPAPYSLPTSFSGSFQQPAFPAQAAFPQQTAFSQQPNGAGFAAFGQTKPVVTPFGQVAAAGVSSNPFMTGAPTGQFPTGSSSTNPFL [L171S;L173S]
3 | decreasing interaction | MAASAKRKQEEKHLKMLRDMTGLPHNRKCFDCDQRGPTYVNMTVGSFVCTSCSGSLRGLNPPHRVKSISMTTFTQQEIEFLQKHGNEVCKQIWLGLFDDRSSAIPDFRDPQKVKEFLQEKYEKKRWYVPPEQAKVVASVHASISGSSASSTSSTPEVKPLKSSSGDSAPTLHLNKGTPSQSPVVGRSQGQQQEKKQFDLLSDLGSDIFAAPAPQSTATANFANFAHFNSHAAQNSANADFANFDAFGQSSGSSNFGGFPTASHSPFQPQTTGGSAASVNANFAHFDNFPKSSSADFGTFNTSQSHQTASAVSKVSTNKAGLQTADKYAALANLDNIFSAGQGGDQGSGFGTTGKAPVGSVVSVPSQSSASSDKYAALAELDSVFSSAATSSNAYTSTSNASSNVFGTVPVVASAQTQPASSSVPAPFGATPSTNPFVAAAGPSVASSTNPFQTNARGATAATFGTASMSMPTGFGTPAPYSLPTSFSGSFQQPAFPAQAAFPQQTAFSQQPNGAGFAAFGQTKPVVTPFGQVAAAGVSSNPFMTGAPTGQFPTGSSSTNPFL [L163S;L164S]

Variants of: B1
Conditions: with vamp7_human VAMP7, P51809
Remark: another data set of the same source

Row | effect of a mutation on the interaction | Variant
4 | decreasing interaction | MAASAKRKQEEKHLKMLRDMTGLPHNRKCFDCDQRGPTYVNMTVGSFVCTSCSGSLRGLNPPHRVKSISMTTFTQQEIEFLQKHGNEVCKQIWLGLFDDRSSAIPDFRDPQKVKEFLQEKYEKKRWYVPPEQAKVVASVHASISGSSASSTSSTPEVKPLKSSSGDSAPTLHLNKGTPSQSPVVGRSQGQQQEKKQFDLLSDLGSDIFAAPAPQSTATANFANFAHFNSHAAQNSANADFANFDAFGQSSGSSNFGGFPTASHSPFQPQTTGGSAASVNANFAHFDNFPKSSSADFGTFNTSQSHQTASAVSKVSTNKAGLQTADKYAALANLDNIFSAGQGGDQGSGFGTTGKAPVGSVVSVPSQSSASSDKYAALAELDSVFSSAATSSNAYTSTSNASSNVFGTVPVVASAQTQPASSSVPAPFGATPSTNPFVAAAGPSVASSTNPFQTNARGATAATFGTASMSMPTGFGTPAPYSLPTSFSGSFQQPAFPAQAAFPQQTAFSQQPNGAGFAAFGQTKPVVTPFGQVAAAGVSSNPFMTGAPTGQFPTGSSSTNPFL [L163S;L164S]

Variants of: B2
Conditions: with agfg1_human AGFG1, P52594

Row | effect of a mutation on the interaction | Variant
5 | decreasing interaction | MAILFAVVARGTTILAKHAWCGGNFLEVTEQILAKIPSENNKSTSSHGNYLFHYICQDRIVYLCITDDDFERSRAFNFLNEIKKRFQTTYGSRAQTALPYAMNSEFSSVLAAQLKHHSENKGLDKVMETQAQVDELKGIMVRNIDLVAQRGERLELLIDKTENLVDSSVTFKTTSRNLARAMCMKNLKLTIIIIIVSIVFIYIIVSPLCGGFTWPSCVKK [L43S;Y45S]

Variants of: B2
Conditions: with agfg1_human AGFG1, P52594
Remark: another data set of the same source

Row | effect of a mutation on the interaction | Variant
6 | decreasing interaction | MAILFAVVARGTTILAKHAWCGGNFLEVTEQILAKIPSENNKSTSSHGNYLFHYICQDRIVYLCITDDDFERSRAFNFLNEIKKRFQTTYGSRAQTALPYAMNSEFSSVLAAQLKHHSENKGLDKVMETQAQVDELKGIMVRNIDLVAQRGERLELLIDKTENLVDSSVTFKTTSRNLARAMCMKNLKLTIIIIIVSIVFIYIIVSPLCGGFTWPSCVKK [L43S;Y45S]
